As usually defined, the Kd is the free concentration of one partner at which half of the binding sites on the other are occupied at equilibrium, for simple one-to-one binding.

What all share (test): SPR
In general terms: In SPR one partner is held on a chip, and binding of the other changes the refractive index at the surface.

Test [1] concerns the target trastuzumab produced in CHO-K1 cells (human (detected with anti human IgG (H + L))).
The target of test [2] is trastuzumab produced in CHO-gmt13 cells (human (detected with anti human IgG (H + L))).
Test [3] concerns the target trastuzumab produced in CHO-gmt21 cells (human (detected with anti human IgG (H + L))).
Test [4] has as its target trastuzumab produced in CHO-gmt8 cells (human (detected with anti human IgG (H + L))).
Test [5] addresses trastuzumab produced in CHO-gmt9 cells (human (detected with anti human IgG (H + L))).

As for “extracellular domain of human FcγRIIIa with a His-tag (from UniProt P08637 17-208) (receptor)”, the Kd in test [1] amounted to 560 nM; in test [2] it was 780 nM; in test [3], 799 nM; in test [4], 200 nM; in test [5], 80 nM.

For the origin of these results see article PMC11452509.
